US20060067886A1, “Gastrin receptor-avid peptide conjugates” (priority 1997, published 2006)
“And” between values parts separate entries of the source, which are not always exact repeats. Equal entries are not always repeated.

Key:
[1] = Biodistribution of radiometal-DOTA-BBN conjugates in CF1 normal mice; conditions: 1 hour post-injection
[2] = Stability of 177Lu conjugate (RCP, HPLC recovery); type: physicochemical; conditions: wide range of pH values, 24 hours
Experimental: Under identical chromatographic conditions, DOTA-8-Aoc-BBN[7-14]NH2 has a retention time of 20.5 minutes, allowing for peak purification of the radiolabeled conjugate.
To 50 μl (3.4×10^−8 mols) of DOTA-8-Aoc-BBN[7-14]NH2 in 50 μL of 0.2M Ammonium Acetate was added 150 μL of 0.4M Ammonium Acetate. To this solution was added 50 μL of 177LuCl3 (2 mCi in 0.05N HCl, Missouri University Research Reactor). The solution was allowed to incubate at […] for 1 hour, after which […] of 0.002M EDTA was added in order to scavenge uncomplexed Lutetium. Quality control of the final product was determined by reversed-phase HPLC. Peak purification of the labeled species was performed by collecting the sample from the HPLC eluant, into a solution of 1 mg/mL bovine serum albumin/0.1M Na2HPO4. All further analyses were carried out using the HPLC-purified products.
HPLC analysis of each of the new compounds was performed using an analytical C-18 reversed phase column (Phenomenex, 250×4.6 mm, 5 μm). The mobile phase consisted of a linear gradient system, with solvent A corresponding to 100% water with 0.1% trifluoroacetic acid and solvent B corresponding to 100% acetonitrile with 0.1% trifluoroacetic acid. […]

[3] = tested on: PC-3 human tumor xenografts; experiment: in vivo

Question: Which results are given for `CSCC[C@H](NC(=O)[C@H](CC(C)C)NC(=O)[C@H](Cc1cnc[nH]1)NC(=O)CNC(=O)[C@@H](NC(=O)[C@H](C)NC(=O)[C@H](Cc1c[nH]c2ccccc12)NC(=O)[C@H](CCC(N)=O)NC(=O)CCCCCCCNC(=O)CN1CCN(CC(=O)O)CCN(CC(=O)O)CCN(CC(=O)O)CC1)C(C)C)C(N)=O` [177Lu-DOTA-8-Aoc-BBN[7-14]NH2] [metal not drawn]?
Answer: Avg % ID, Blood [1]: 0.20 ± 0.15 % ID; Avg % ID, Carcass [1]: 4.95 ± 1.41 % ID; Avg % ID, Heart [1]: 0.02 ± 0.04 % ID; Avg % ID, Kidney [1]: 1.62 ± 0.14 % ID; Avg % ID, L. Intestine [1]: 4.63 ± 0.57 % ID; Avg % ID, Liver [1]: 0.31 ± 0.05 % ID; Avg % ID, Muscle [1]: 0.02 ± 0.05 % ID; Avg % ID, Pancreas [1]: 7.01 ± 1.42 % ID; Avg % ID, S. Intestine [1]: 9.55 ± 2.37 % ID; Avg % ID, Spleen [1]: 0.16 ± 0.05 % ID; Avg % ID, Stomach [1]: 0.51 ± 0.15 % ID; Avg % ID/gm, Blood [1]: 0.14 ± 0.10 % ID/gm; Avg % ID/gm, Heart [1]: 0.19 ± 0.36 % ID/gm; Avg % ID/gm, Kidney [1]: 4.97 ± 0.71 % ID/gm; Avg % ID/gm, L. Intestine [1]: 6.17 ± 0.79 % ID/gm; Avg % ID/gm, Liver [1]: 0.23 ± 0.05 % ID/gm; Avg % ID/gm, Lung [1]: 0.20 ± 0.21 % ID/gm; Avg % ID/gm, Muscle [1]: 0.17 ± 0.39 % ID/gm; Avg % ID/gm, Pancreas [1]: 30.83 ± 1.89 % ID/gm; Avg % ID/gm, S. Intestine [1]: 6.47 ± 1.24 % ID/gm; Avg % ID/gm, Spleen [1]: 1.23 ± 0.59 % ID/gm; Avg % ID/gm, Stomach [1]: 1.41 ± 0.44 % ID/gm; stability of the conjugate (RCP) [2]: stability of the conjugate over a wide range of pH values over a time course of 24 hours; Avg % ID, Blood ([3]; 1 hr): 0.62±0.44 % ID; Avg % ID, Carcass ([3]; 1 hr): 6.18 ± 1.01 % ID; Avg % ID, L. Intestine ([3]; 1 hr): 3.64 ± 0.72 % ID; Avg % ID, Muscle ([3]; 1 hr): 0.01 + 0.02 % ID; Avg % ID, Pancreas ([3]; 1 hr): 9.70 ± 1.12 % ID; Avg % ID, S. Intestine ([3]; 1 hr): 8.20 ± 1.72 % ID; Avg % ID, Stomach ([3]; 1 hr): 0.61 ± 0.09 % ID; Avg % ID, Tumor ([3]; 1 hr): 1.15 ± 0.72 % ID; Avg % ID, Urine ([3]; 1 hr): 67.41±2.45 % ID; Avg % ID/gm, Heart ([3]; 1 hr): 0.15 ± 0.22 % ID/gm; Avg % ID/gm, Kidney ([3]; 1 hr): 4.70 ± 0.95 % ID/gm; Avg % ID/gm, L. Intestine ([3]; 1 hr): 3.29 ± 0.61 % ID/gm; Avg % ID/gm, Liver ([3]; 1 hr): 0.30 ± 0.05 % ID/gm; Avg % ID/gm, Lung ([3]; 1 hr): 0.18 ± 0.09 % ID/gm; Avg % ID/gm, Muscle ([3]; 1 hr): 0.11 ± 0.13 % ID/gm; Avg % ID/gm, Pancreas ([3]; 1 hr): 38.53 ± 3.61 % ID/gm; Avg % ID/gm, S. Intestine ([3]; 1 hr): 5.60 ± 0.46 % ID/gm; Avg % ID/gm, Spleen ([3]; 1 hr): 0.33 ± 0.51 % ID/gm; Avg % ID/gm, Stomach ([3]; 1 hr): 1.38 ± 0.52 % ID/gm; Avg % ID/gm, Tumor ([3]; 1 hr): 4.22±1.09 % ID/gm; Avg % ID, Blood ([3]; 4 hrs): 0.12 ± 0.11 % ID; Avg % ID, Carcass ([3]; 4 hrs): 2.52 ± 1.18 % ID; Avg % ID, Heart ([3]; 4 hrs): 0.01 + 0.02 % ID; Avg % ID, Kidney ([3]; 4 hrs): 0.61 ± 0.08 % ID; Avg % ID, L. Intestine ([3]; 4 hrs): 7.28 ± 4.23 % ID; Avg % ID, Liver ([3]; 4 hrs): 0.15 ± 0.03 % ID; Avg % ID, Lung ([3]; 4 hrs): 0.05 + 0.09 % ID; Avg % ID, Muscle ([3]; 4 hrs): 0.02 + 0.03 % ID; Avg % ID, Pancreas ([3]; 4 hrs): 5.23 ± 1.68 % ID; Avg % ID, S. Intestine ([3]; 4 hrs): 2.51 ± 0.75 % ID; Avg % ID, Spleen ([3]; 4 hrs): 0.05 ± 0.02 % ID; Avg % ID, Stomach ([3]; 4 hrs): 0.22 ± 0.06 % ID; Avg % ID, Tumor ([3]; 4 hrs): 0.78 ± 0.27 % ID; Avg % ID, Urine ([3]; 4 hrs): 79.76 ± 6.48 % ID; Avg % ID/gm, Blood ([3]; 4 hrs): 0.08 ± 0.07 % ID/gm; Avg % ID/gm, Heart ([3]; 4 hrs): 0.07 ± 0.13 % ID/gm; Avg % ID/gm, Kidney ([3]; 4 hrs): 2.18 ± 0.31 % ID/gm; Avg % ID/gm, L. Intestine ([3]; 4 hrs): 7.29 ± 3.73 % ID/gm; Avg % ID/gm, Liver ([3]; 4 hrs): 0.13 ± 0.02 % ID/gm; Avg % ID/gm, Lung ([3]; 4 hrs): 0.11 ± 0.15 % ID/gm; Avg % ID/gm, Muscle ([3]; 4 hrs): 0.15 ± 0.21 % ID/gm; Avg % ID/gm, Pancreas ([3]; 4 hrs): 22.18 ± 4.66 % ID/gm; Avg % ID/gm, S. Intestine ([3]; 4 hrs): 1.93 ± 0.96 % ID/gm; Avg % ID/gm, Spleen ([3]; 4 hrs): 0.60 ± 0.36 % ID/gm; Avg % ID/gm, Stomach ([3]; 4 hrs): 0.34 ± 0.34 % ID/gm; Avg % ID/gm, Tumor ([3]; 4 hrs): 3.03±0.91 % ID/gm; Avg % ID, Blood ([3]; 24 hrs): 0.01 + 0.02 % ID; Avg % ID, Carcass ([3]; 24 hrs): 2.08 + 3.14 % ID; Avg % ID, Kidney ([3]; 24 hrs): 0.17 ± 0.06 % ID; Avg % ID, L. Intestine ([3]; 24 hrs): 1.75 ± 0.23 % ID; Avg % ID, Muscle ([3]; 24 hrs): 0.02 + 0.03 % ID; Avg % ID, Pancreas ([3]; 24 hrs): 1.31 ± 0.45 % ID; Avg % ID, S. Intestine ([3]; 24 hrs): 0.67 ± 0.12 % ID; Avg % ID, Spleen ([3]; 24 hrs): 0.01 + 0.01 % ID; Avg % ID, Stomach ([3]; 24 hrs): 0.09 ± 0.06 % ID; Avg % ID, Tumor ([3]; 24 hrs): 0.29 ± 0.18 % ID; Avg % ID, Urine ([3]; 24 hrs): 85.9±1.4 % ID and 85.85 ± 1.39 % ID; Avg % ID/gm, Blood ([3]; 24 hrs): 0.01 ± 0.01 % ID/gm; Avg % ID/gm, Heart ([3]; 24 hrs): 0.06 ± 0.09 % ID/gm; Avg % ID/gm, Kidney ([3]; 24 hrs): 0.60 ± 0.20 % ID/gm; Avg % ID/gm, L. Intestine ([3]; 24 hrs): 1.90 ± 0.53 % ID/gm; Avg % ID/gm, Lung ([3]; 24 hrs): 0.14 ± 0.26 % ID/gm; Avg % ID/gm, Muscle ([3]; 24 hrs): 0.10 ± 0.17 % ID/gm; Avg % ID/gm, Pancreas ([3]; 24 hrs): 4.97 ± 2.28 % ID/gm; Avg % ID/gm, S. Intestine ([3]; 24 hrs): 0.48 ± 0.14 % ID/gm; Avg % ID/gm, Spleen ([3]; 24 hrs): 0.08 ± 0.10 % ID/gm; Avg % ID/gm, Stomach ([3]; 24 hrs): 0.19 ± 0.13 % ID/gm; Avg % ID/gm, Tumor ([3]; 24 hrs): 1.54±1.14 % ID/gm
